± gives the half width of the 95% confidence interval.
Assay: folding stability dG unfold (combined trypsin and chymotrypsin); higher = more stable
Method in brief: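 Sequencing followed digestion of designed mini-proteins with trypsin and chymotrypsin, each at 11 concentrations in threefold dilutions together with a no-protease condition. The mini-proteins were under 80 residues, had no cysteine, sat in a PA-tagged cDNA display construct, and were kept only if AlphaFold2 dimer inter-PAE was above 15. From the counts, Bayesian fitting gave K50, and unfolding free energy was derived against a sequence-predicted unfolded-state K50 and a shared folded-state K50, per protease or combined.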

Sequence	folding stability dG unfold [kcal/mol]
SAMVIPAEVRLPGTPEEVLEKAREFADTLAARFRELGFEVVAVELEEIEPGEAVVRLRIVVARPDEEFPSAG [r14_973_TrMRF]	2.85 ± 0.069
SAPPNHRMVMYEIPIPPGMEIGDEIKLKIKVPGKEYPIKIDRIPNLPPGMRVRIMFNLDNGQFMIQILPSAG [r14_554_TrROS]	2.77 ± 0.26
SAGGEVRLRLEAELLPDGTLVLRGRVEVRVGDRVFEFEFELVLRLEPVPPPPAPARPLLIPERLLDASAGGS [r8_269_TrMRF]	2.13 ± 0.12
SAGGKMKTVKVTITDKDGRKIEIVDVTVKDNKVYVVVKDKKTKKTIVLEFDTKEEAEEAIKKLLEAKSAGGS [r16_736_TrROS_Hall]	2.18 ± 0.34
SAGGAEEIRKELGISPEEKVTVKLVVPEGGRPREFTVEMKPDELEKVLEELGVPPEKLEITEVEVIEESAGG [r13_681_JUSTAS]	-0.456 ± 0.21
SAKNIAIKVSIWPFDPEDGEPQTFEITYPFPDPEDAIDEIEEFLPPGYRVKIEVFDPDGKPLKEIEIRISAG [r14_234_TrROS]	2.09 ± 0.19
SAGGSAKSIKAEELAKEIADLMQERNPNWRVEIEPQPGPGPMITVKIYHRDPNNGDQQPINTFTIRSAGGSA [r15_682_TrROS]	0.442 ± 0.15
SAGGSASGYYTTTTVEIEPEGDTLTTVTTTTLGVPVTFDPVNNTLTLNLPPDQSLVTTTTVTEVAASAGGSA [r15_1040_JUSTAS]	0.976 ± 0.055
SAGGSAGGSKKKKKPKKKKYIVIKVDMSLEEVKKLISKLLGFEEGEKIEIVKVDPENKYIVIKSAGGSAGGS [r12_815_TrROS_Hall]	2.08 ± 0.27
SAMIVVEIEESRSPTSPERTVTVTVKKPDGTVVKTIPITVSGANPSATPEEVRALAEPIVEELVKKGLLSAG [r14_120_JUSTAS]	1.55 ± 0.13
SAGGSAGGSAGLPPGDKVTISIPIVIPDGYMINSHITIDPDNGETEIEIQIYPLKDPDALSAGGSAGGSAGG [r11_695_TrROS]	2.11 ± 0.14
SAGGSGMIPVTVDFPPDVSEEEIKAYVEELEKKGYKVLKVEITTEKDAKGNTLRTVTVVLAPPSLLSAGGSA [r2_442_JUSTAS]	3.15 ± 0.048
SAGGSAMETIELKLEDGSTLTIERDPENPNTLTITFEDGRKITVTADSAEEALKKALELAKEGKLPSAGGSA [r15_38_TrROS_Hall]	4.6 ± 0.17
SAEPTLAEATNDPATGTATANFPLENLPPDYRVLAVNLETGEVTEFPPDGEVTITAPEGPVLVKLFWKGSAG [r14_134_TrMRF]	0.213 ± 0.15
SAGGSAGGTIPSDYSVKELKVGGKKYVIVRYPDGIVELYSVEGNKKTLLRTVDTDPNASVSISGSAGGSAGG [r6_476_JUSTAS]	2.38 ± 0.097
SAGGSAGGSAGGEIKGKKFKIVKIVEVRYDKETKEFYVRIYIEDTNEIITVRLEDLPEELSAGGSAGGSAGG [r7_304_TrROS_Hall]	2.25 ± 0.18

Sequence	folding stability dG unfold [kcal/mol]
SAGGSAGGSAGVVLKEPKGGVPKTITEDPNHPGLYTTGSPDGTISTRPLEIKPEEEPVLLSAGGSAGGSAGG [r17_85_JUSTAS]	-0.739 ± 0.55
SAGGSAGGSAGGPPSVPITITLIILFPDGYFIVIELTIEVPPDGEIEIKIKILHIFPVKSAGGSAGGSAGGS [r10_1139_TrROS]	3.6 ± 0.12
SAGGITINEDGTITIEVNGKTYTIKLPPGAEITKIEVLEDGTIKITLRINGKTVTLELKVYKEGEEPSAGGS [r16_635_TrROS_Hall]	> 6
SAGGSAPWVTLPIIIMFDSPEQAVEEVKPIFQELFGIKDVNVEEEPMPNGMVFVPIEITIPAENMKSAGGSA [r15_173_TrROS]	1.09 ± 0.092
SAYLMFMIPIKNDEITIKIPVPPGYYVRIFVFFPDGMEPRTIPPDEKVKIKIPKPGAWIMIMVYPAEEMSAG [r14_882_TrROS]	4.41 ± 0.14
SAGGSAGGSASVKVEEKPTEIVITTKSPSPVITVETIPLSPDGVPVGKKTTTISLPPKDIILSAGGSAGGSA [r18_300_JUSTAS]	-0.719 ± 0.47
SAGGKLQLLLRSPDGNVEVALSFEKLPDGKVKVTATVRNKKTGRTYRLEVTFDLKTKKIEIKLEELPSAGGS [r16_684_TrROS_Hall]	> 6
SAGGKIKIKINGKTYTVEDAEIIEVKKNKNGKKEIIIKIKVNGKTYEIVISEEDLKKIKPGDTITLKSAGGS [r16_638_TrROS_Hall]	2.96 ± 0.059
SAGGGLSPDTPVNYVVFVELPNGERRTFNVPGPAGRPEVAIAIAEKLREEGYEVKAIFPGEGVIVVGSAGGS [r8_497_TrMRF]	2.98 ± 0.08
SAGGSAGGSASVTTTTTPLPGDRTLTTTTYPDGTVKVTTYTVDTATGTVTSTSTTLSPATLTSAGGSAGGSA [r18_325_JUSTAS]	0.856 ± 0.082
SMLTITDENGNTITLPAAGEPVTLTVEIEVDGYTVTVEITFDADTKKITIKVEVTNPNGEKQTFTFTFDLSA [r9_1073_TrROS_Hall]	3.84 ± 0.16
SAGGMKIIEIEYDEETGKYKFKIKIYDKKTGKLYEIEVEVDKKTGKLSIEEIAKKIAEKLGLPKDIKISAGG [r13_362_TrROS_Hall]	3.69 ± 0.3
SAGGMMTPVSEETLPDGSKVLVEENPATGERTVTTLNPATGTVTTETLKRVPGENAWTLLSKTTTPAPSAGG [r19_249_JUSTAS]	1.94 ± 0.041
SAGMLVRVTLKYPDGKTIKIPFPYAKILSEETSNNETTFTIDSPESADKAVEAIKKEYPDIEVKVEPLESAG [r5_453_JUSTAS]	2.23 ± 0.058
SAGGSAGGMKITIEKLDPEKGVYLLTVKPPGPGKTLVIELPVEKEEEALAFAKKLEELGYEVENSAGGSAGG [r6_796_TrMRF]	1.34 ± 0.13
SAGGSAGGPIKDSKGKFIVTFEFPNGLKKKFEVENIKNPEIEFNFNGKKVKTKIIEIKKGDESKSAGGSAGG [r6_575_TrMRF]	0.0149 ± 0.12

From the supplement of paper PMC12764529
